From the supplement of paper PMC9170038

Tested on: MS2 coat protein
Experiment: apparent KD of MS2 coat protein; designed switch direction (-1 OFF switch, 1 ON switch): -1; higher = weaker reporter binding
Procedure, shortened: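 The apparent KD reported per design is the median over clusters of curve fits to normalised cluster fluorescence. The RNA switches were transcribed on Illumina chips by stalled E. coli RNA polymerase. SNAP-549-labelled MS2 coat protein was titrated from 0.7 or 1.5 nM, doubling up to 3 µM, in Tris-HCl pH 7.5 buffer containing KCl, MgCl2, BSA, DTT, tRNA and Tween-20, with no input, 200 uM small-molecule ligand, or an oligonucleotide input.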

[1] = input ligand: microRNA oligo, concentration not stated
[2] = Eterna round: R95, input ligand: FMN 200 uM
[3] = Eterna round: R95, input ligand: microRNA oligo, concentration not stated
[4] = Eterna round: R95, input ligand: none

Sequence | apparent KD of MS2 coat protein (input ligand: FMN 200 uM) | apparent KD of MS2 coat protein (input ligand: none) | apparent KD of MS2 coat protein [3] | further results
GGCAGACAUGAGGAUCACCCAUGUGAGGAUAUGGUGCGAUCGUCGAUAGACGAUAGCACCAGAAGGCACAUGCC [Mat - Exclusion 1 - Eli Mod - D4] (Eterna round: R97, puzzle: Exclusion 1) | 159 nM | 34.5 nM |  | 
GGCAUCGGAGGAUAUAUUUAUGGUGAUACCCGAAGCUUUCUACUUGAGGAUCACCCAAGUAGAAGGCCGAUGCC [jl-ex2.4.82 ViennaUCT mod] (Eterna round: R97, puzzle: Exclusion 2) | 17.4 nM | 10.9 nM |  | 
GGCAUGCAAGGAUAUACUUGCAGUGAUAUUCGAUAAAGUCUACUUGAGGAUCACCCAAGUAGAAGGUGCAUGCC [Exclusion 2 (Mod6 JL EX2 4.74 Vienna UCT mod of Mamaed)] (Eterna round: R97, puzzle: Exclusion 2) | 35 nM | 25.8 nM |  | 
GGCAUGUAAGGAUAUGCCACUGAGUGCUUUGCGCUCAGUAAGCAGAAGGUACAUGAGGAUCACCCAUGUGAUAA [jl-ex4-4.54 ViennaUCT mod] (Eterna round: R97, puzzle: Exclusion 4) | 136 nM | 653 nM |  | 
GGCGGACAUGAGGAUCACCCAUGUAAGGAUAUUAGGCGAUCGUCGAUAGACGAUAGCCUGAGAAGGUACGCGCC [Mat - Exclusion 1 - Eli Mod - D14] (Eterna round: R97, puzzle: Exclusion 1) | 18.6 nM | 17.1 nM |  | 
GGCGGACAUGAGGAUCACCCAUGUCAGGAUAUUAGGCGAUCGUCGAAAGACGAUAGCCUGAGAAGGGACGCGCC [Eli x1 4.13] (Eterna round: R97, puzzle: Exclusion 1) | 20.6 nM | 17.7 nM |  | 
GGCUGCAAUGUAGGAUAUCUGCACGUUUAGUGCAGAGAAGGACAUGAGGAUCACCCAUGUAUAGUAGCUUCGGCUACAGCAGCC [ENG1-D2] (Eterna round: R96, puzzle: Exclusion NG 1) | 18.4 nM | 17.2 nM |  | apparent KD of MS2 coat protein [1]: 11.4 nM
GGGAAGGGAGGAUAUGAGGAGGAGAACAUGAGGAUCACCCAUGUGAGGCCUCAGGAUCAAUCAGAAGGCCCGAUCC [AK-MS2ROC-r4-exclusion5-15.1] (Eterna round: R97, puzzle: Exclusion 5) | 78.1 nM | 26 nM |  | 
GGGCAGUCAGGAUAUACAUGAGGAUCACCCAUGUUGAGAUGUGAAAGGGCGGGAGUAGGUAGAAGGGACGAGAG [JR_Exclu3_Sub041] (puzzle: Exclusion 3) |  |  | 22.8 nM | apparent KD of MS2 coat protein [2]: 27.4 nM; apparent KD of MS2 coat protein [4]: 29.9 nM
GGGCGCUUAGGAUAUACAUGAGGAUCACCCAUGUGGCUCUCCACGUUGCAUAACAUUCGUAGAAGGAAGCGCAU [Eternabot (L1) Solution 69] (Eterna round: R97, puzzle: Exclusion 3) | 252 nM | 35.8 nM |  | 
GGGUAGUGAGGAUAUCGUUGUUAGGAGGAGUAGGUAGGAGGCGAGAAGGCACAUGAGGAUCACCCAUGUAUGGA [JR_Exclu4_Sub067] (puzzle: Exclusion 4) |  |  | 30.7 nM | 
GGGUGACAUGAGGAUCACCCAUGUCAGGAUAUGAUACUAUGUACUUCGGUACAUAGUAUCAGAAGGGACAUCAU [Ex1-3: 14] (Eterna round: R96, puzzle: Exclusion 1) | 112 nM | 424 nM |  | apparent KD of MS2 coat protein [1]: 253 nM
GGGUGACAUGAGGAUCACCCAUGUCAGGAUAUGAUACUAUGUACUUCGGUACAUAGUAUCAGAAGGGACAUCAU [Ex1-3: 14] (puzzle: Exclusion 1) |  |  | 216 nM | 
GGGUGACAUGAGGAUCACCCAUGUCAGGAUAUGGGCUCGGGCUCGAAAGGGUCUGGGUCUAGAAGGGACUGCCC [-36.1, -35.1 kcal, 22%A (-3 GC series)] (Eterna round: R97, puzzle: Exclusion 1) | 137 nM | 67 nM |  | 
GGGUGUCGAGUUAGGAUAUCGAUGCCGUAACGGCUCGAGAAGGGACUUGAGGAUCACCCAAGUCUGGUCGAGGC [Rierariis] (Eterna round: R97, puzzle: Brourd's mod of Exclusion 4) | 23.4 nM | 18.4 nM |  | 
GGUACACAUGAGGAUCACCCAUGUCAGGAUAUCUGGAUACUCUUUAUUUUAGAUAUCCAGAGAAGGGACGUGCC [Ex1-3: 9Z] (puzzle: Exclusion 1) |  |  | 29.7 nM | 
GGUACUCAAAGAGUACCAAUACGAACAUGAGGAUCACCCAUGUAGGAUAUGCUACUCAAAGAGUAGCAGAAGGAUAUGAACCUC [Far Half Aptamer v10] (Eterna round: R96, puzzle: Exclusion NG 3) | 407 nM | 227 nM |  | apparent KD of MS2 coat protein [1]: 204 nM
GGUAGAGAGCAGGAUAUCUUGGGUAAGUAUUGUAGAGAAGGGCUCACAUGAGGAUCACCCAUGUGGUCCAAGAU [JL Dibiri mod 06] (puzzle: Exclusion 6) |  |  | 12.8 nM | 

Sequence | apparent KD of MS2 coat protein (input ligand: FMN 200 uM) | apparent KD of MS2 coat protein (input ligand: none) | apparent KD of MS2 coat protein [3] | further results
GGUCCUGAUGAUUUCCUAUACAUGAGGAUCACCCAUGUAUGUUUAUUUUGUUUUUAGCUUUUUGGUCGUCAAUAAUA [Mod-Hoo-honey-3] (Eterna round: R97, puzzle: Sensor, turn-off variant 1) | 43.3 nM | 43.4 nM |  | 
GGUCCUGAUGAUUUUCUAUACAUGAGGAUCACCCAUGUAUGUGUAUUUUGUUUUUCGCUUUUUGGUCGUCAAUAAUA [Mod-Hoo-honey] (Eterna round: R97, puzzle: Sensor, turn-off variant 1) | 43.8 nM | 44.3 nM |  | 
GGUCCUGAUGAUUUUCUAUACAUGAGGAUCACCCAUGUAUGUUUAUUUUGUUUUUCGCUUUUUGGUCGUCAAUAAUA [Honey] (Eterna round: R97, puzzle: Sensor, turn-off variant 1) | 44.1 nM | 41.6 nM |  | 
GGUCGGCGAGGAUAUACAUGAGGAUCACCCAUGUGAUAGAUUAUCGCGAAAGCGUAAUGUAGAAGGCGCUGACG [jl-ex3-4.10 jl mod] (Eterna round: R97, puzzle: Exclusion 3) | 1280 nM | 40.7 nM |  | 
GGUCUACAUGAGGAUCACCCAUGUUAGGAUAUGCUUCGUCGGGCUAUACACGGCGGAUGUAGAAGGGACCUGGU [Eternabot (L1) Solution 83] (Eterna round: R97, puzzle: Exclusion 1) | 16.7 nM | 20.2 nM |  | 
GGUCUGCGAGGAUAUACAUGAGGAUCACCCAUGUGCGAGAAACUAGUGAGGUCGAUUGGUAGAAGGCGCGGACG [Mat - Exclusion 3 - Mod of JL D83] (puzzle: Exclusion 3) |  |  | 113 nM | apparent KD of MS2 coat protein [2]: 74.1 nM; apparent KD of MS2 coat protein [4]: 210 nM
GGUCUGCGAGGAUAUACAUGAGGAUCACCCAUGUGCGUGAUACUAGUGAGGUCGGUUGGUAGAAGGCGCGGACG [JL-ex3-2.08 salish99 mod] (puzzle: Exclusion 3) |  |  | 245 nM | apparent KD of MS2 coat protein [2]: 128 nM; apparent KD of MS2 coat protein [4]: 649 nM
GGUGAGCGAGGAUAUACAUGAGGAUCACCCAUGUGAGAGAAAUAAGUGAGGAAGAAAAGUAGAAGGCGCGAACG [Mat - Exclusion 3 - Mod of Salish D46] (puzzle: Exclusion 3) |  |  | 25.3 nM | apparent KD of MS2 coat protein [2]: 114 nM; apparent KD of MS2 coat protein [4]: 29.3 nM
GGUGCGUGUGUGAGGAUAUGCUGGUCCUUGGAUCAGCAGAAGGCACAUGAGGAUCACCCAUGUGGUGUCGUACC [salish99_Bmod_Ex4_029] (puzzle: Brourd's mod of Exclusion 4) |  |  | 232 nM | 
GGUGCGUUUGUGAGGAUAUGCUGGUCCUUGGUUCGGCAGAAGGCACAUGAGGAUCACCCAUGUGGUGUCGUCCC [salish99_Bmod_Ex4_046] (puzzle: Brourd's mod of Exclusion 4) |  |  | 32 nM | 
GGUGGACAUGAGGAUCACCCAUGUGAGGAUAUCGGCUAUCUUCUCGCUGUCGGUUGCUCGAGAAGGCACAUUGU [Exclusion 1 V94] (Eterna round: R96, puzzle: Exclusion 1) | 112 nM | 64.9 nM |  | apparent KD of MS2 coat protein [1]: 50.1 nM
GGUGGACAUGAGGAUCACCCAUGUGAGGAUAUCGGCUAUCUUCUCGCUGUCGGUUGCUCGAGAAGGCACAUUGU [Exclusion 1 V94] (puzzle: Exclusion 1) |  |  | 52.2 nM | 
GGUGGACAUGAGGAUCACCCAUGUGAGGAUAUCGGCUGGCUACUCGCUGACGGCUGCUCGAGAAGGCGCAUUGU [Exclusion 1 V88] (puzzle: Exclusion 1) |  |  | 41.7 nM | 
GGUGGACAUGAGGAUCACCCAUGUGAGGAUAUCGGCUGGCUAGUGGCGGCUGGCUUCUCGAGAAGGCGCAUAGU [Exclusion 1 V79] (puzzle: Exclusion 1) |  |  | 42.2 nM | 
GGUGGGCUAGGAUAUGCUUUGGGAGGGCAUUCCUUCGAUAAACUUGAGGAUCACCCAAGUAGAAGGAGCUUGCC [salish99_ex2_r4_022] (Eterna round: R97, puzzle: Exclusion 2) | 33.9 nM | 15.3 nM |  | 
GGUUAGAUGGUAGGAUAUCCAUAUCGAGUGACCCUUUCAUAACAUGAGGAUCACCCAUGUCGGUGGGAGAAGGGCCGUACGGCG [salish99_ExNG02_R04_011] (Eterna round: R96, puzzle: Exclusion NG 2) | 35.5 nM | 33.2 nM |  | apparent KD of MS2 coat protein [1]: 38.3 nM
GGUUAGCGAGGAUAUACAUGAGGAUCACCCAUGUGAUCCUAAGGCUGAUCAAGCCUAUGUAGAAGGCGCAAAUC [salish99_ex3_r4_008] (Eterna round: R97, puzzle: Exclusion 3) | 40.1 nM | 227 nM |  | 
